Measurements published in US12378310 (MULTITUDE, dated 2025).

Each binder was assayed against recombinant FOLR1 protein (rProtein) (Homo sapiens (Human), UniProt P15328 25-234, limits assumed) (assay: ELISA titration with varying concentrations of recombinant FOLR1 protein).
Description: Antibodies were tested in an antigen binding assay using ELISA titration experiments.

Sequence of recombinant FOLR1 protein (rProtein) (P15328 25-234 limits assumed): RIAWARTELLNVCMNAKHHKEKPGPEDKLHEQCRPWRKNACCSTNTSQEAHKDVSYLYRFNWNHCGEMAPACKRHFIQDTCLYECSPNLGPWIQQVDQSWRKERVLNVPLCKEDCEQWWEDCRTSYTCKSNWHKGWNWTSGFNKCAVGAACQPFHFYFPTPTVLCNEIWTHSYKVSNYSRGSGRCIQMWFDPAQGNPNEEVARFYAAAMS

Binder	rProtein ELISA Affinity
FOLR1-Ab4 (antibody, V domains shown, Monoclonal antibody from a hybridoma clone; V regions amplified with mouse Ig primers) VH: QIQLVQSGPELKKPGETVKISCKASIYTFTDYSIQWVKQAPGKGLKWMGWINTETGEPTYADDFKGRFAFSLESSASTAFLQINNLKNEDTATYFCARMGYYGPKIMDYWGQGTSVTVSS VL: not shown	0.78 nM
FOLR1-Ab1 (antibody, V domains shown, Monoclonal antibody from a hybridoma clone; V regions amplified with mouse Ig primers) VH: QVQLQQPGAELVRPGASVKLSCKASGYTFTSYWMNWVKQRPEQGLEWIGRINPYDSETHSNQKFKDKAILTVDKSSTTAYMQLSSLTSEDSAVYYCARSGGYAWFAYWGQGTLVTVSA VL: not shown	0.39 nM
FOLR1-Ab20 (antibody, V domains shown, Monoclonal antibody from a hybridoma clone; V regions amplified with mouse Ig primers) VH: EVLLQQSGPELVKPGASVKIPCKASGYTFTDYNMDWVKQSHGKSLEWIGDINPNNGGTIYNQKFKGKATLTVDKSSSTAYMELRSLTSEDTAVYYCARKPYYGPRYFDVWGAGTTVTVSS VL: not shown	12.5 nM
FOLR1-Ab14 (antibody, V domains shown, Monoclonal antibody from a hybridoma clone; V regions amplified with mouse Ig primers) VH: EVLLQQSGPELVKPGASVKIPCKASGYTFTDYNMDWVKQSHGKSLEWIGDINPNNGGTIYNQKFKGKATLTVDKSSSTAYMELRSLTSEDTAVYYCARKPYYGPRYFDVWGAGTTVTVSS VL: not shown	3.12 nM
FOLR1-Ab23 (antibody, V domains shown, Monoclonal antibody from a hybridoma clone; V regions amplified with mouse Ig primers) VH: EVLLQQSGPELVKPGASVKIPCKASGYTFTDYNMDWVKQSHGKSLEWIGDINPNNGGTIYNQKFKGKATLTVDKSSSTAYMELRSLTSEDTAVYYCARKPYYGPRYFDVWGAGTTVTVSS VL: not shown	6.25 nM
